Laboratory results published in patent US11473073B2, “Aminopeptidases for protein hydrolyzates” (DUPONT NUTRITION BIOSCIENCES APS, priority 2015, dated 2022).

What was measured:
Format in all cases: biochemical
[1] = biological target: T1, Aspergillus clavatus NRRL 1 PepN 2 (aminopeptidase type 2) TRI035, SEQ ID NO: 5 (mature SEQ ID NO: 22) (Aspergillus clavatus, UniProt A1CCU6); experiment: Activity on Glu-pNA and Gln-pNA substrates; conditions: 20 mM CPB-Buffer pH 9.0, 45° C., 405 nm
T1 construct: MEROPS M28.008
Procedure: (§1) H-Glu-Nitroanilid (pNA) and H-Gln-Nitroanilid (pNA) were used as substrates and the release of p-Nitroanilid (pNA) was measured by absorbance at 405 nm. As buffer 20 mM CPB-Buffer (20 mM Citric acid, 20 mM Na-phosphate, 20 mM Boric acid) pH 9.0 was used. 10 mg H-Glu-pNA and H-Gln-pNA (from BACHEM or Schafer N; Copenhagen, Denmark) were dissolved in 1 ml of DMSO (Dimethyl Sulphoxide from SIGMA; cat # D2650).
(§2) For running the assay 80 μL buffer, 10 μL H-Glu-pNA or H-Gln-pNA substrate and 10 uL appropriately diluted PepN 2 was incubated in Costar assay plate 9017 (Corning Inc.) at 45° C. and measured at 405 nm every 30 sec for 30 min in a VERSAMAX® microplate reader (Molecular Devices) running with SoftMaxPro 5.4.1 software. Activity was determined as the maximal slope of the linear part of the curve determined over 10 time points.

[2] = biological target: T2, Neosartorya fischeri NRRL 181 PepN 2 (aminopeptidase type 2) TRI031, SEQ ID NO: 1 (mature SEQ ID NO: 18) (Aspergillus fischeri, UniProt A1DJ89); experiment: Activity on Glu-pNA and Gln-pNA substrates; conditions: 20 mM CPB-Buffer pH 9.0, 45° C., 405 nm
T2 construct: MEROPS M28.008
Procedure: as §1, §2

[3] = biological target: T3, PepN 1 L. helveticus (Lactobacillus helveticus ATCC 12046), purified (Lactobacillus helveticus, UniProt Q10730); experiment: Activity on Glu-pNA and Gln-pNA substrates; conditions: 20 mM CPB-Buffer pH 9.0, 45° C., 405 nm
T3 construct: made in house
T3 sequence (Q10730 1-844): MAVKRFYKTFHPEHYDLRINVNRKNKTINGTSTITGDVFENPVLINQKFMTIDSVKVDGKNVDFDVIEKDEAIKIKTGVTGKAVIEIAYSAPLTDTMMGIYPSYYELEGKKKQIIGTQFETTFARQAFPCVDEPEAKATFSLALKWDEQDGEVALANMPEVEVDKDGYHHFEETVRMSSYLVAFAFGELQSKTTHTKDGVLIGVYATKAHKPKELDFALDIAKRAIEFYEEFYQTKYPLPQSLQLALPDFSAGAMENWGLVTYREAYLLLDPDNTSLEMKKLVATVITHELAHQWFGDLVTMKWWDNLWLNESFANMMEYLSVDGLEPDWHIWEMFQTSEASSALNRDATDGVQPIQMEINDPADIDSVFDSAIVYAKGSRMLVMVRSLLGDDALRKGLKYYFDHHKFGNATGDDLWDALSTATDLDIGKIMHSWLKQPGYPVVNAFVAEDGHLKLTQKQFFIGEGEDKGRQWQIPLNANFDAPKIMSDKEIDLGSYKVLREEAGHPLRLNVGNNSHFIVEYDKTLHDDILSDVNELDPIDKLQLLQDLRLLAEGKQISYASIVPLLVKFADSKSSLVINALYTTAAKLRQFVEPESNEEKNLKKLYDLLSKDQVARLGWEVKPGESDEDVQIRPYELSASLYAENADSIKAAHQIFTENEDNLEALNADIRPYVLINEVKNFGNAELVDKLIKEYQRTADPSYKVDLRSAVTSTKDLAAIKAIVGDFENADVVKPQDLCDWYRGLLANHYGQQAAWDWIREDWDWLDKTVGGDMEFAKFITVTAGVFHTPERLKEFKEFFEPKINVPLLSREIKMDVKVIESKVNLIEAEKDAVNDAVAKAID

[4] = test system: PepN 1 A. sojae (COROLASE LAP), non-purified; experiment: Activity on Glu-pNA and Gln-pNA substrates; conditions: 20 mM CPB-Buffer pH 9.0, 45° C., 405 nm
[5] = test system: whey protein isolate (WPI); experiment: Degree of hydrolysis of WPI with endopeptidases plus PepN; conditions: 50° C., 18 hr
Procedure: Enzyme activities of PepN 1 Lactobacillus helveticus ATCC® 12046, PepN 1 Aspergillus oryzae and from PepN 2 from Aspergillus clavatus (TRI035) were determined according to Stressler, Eisele et al. (2013, infra). PepN 1 from L. helveticus was expressed and purified as described by Stressler, Eisele et al. (2013, infra).
The PepN 1 and 2 aminopeptidases were standardized to the activity range of 2.5-200 nkat*mL^−1. For protein hydrolyses, 1% (w/wWPI) FOODPRO® Alkaline Protease (DuPont, Brabrand, Denmark) and 1% (w/wWPI) FOODPRO® PNL (DuPont, Brabrand, Denmark) were added to the whey protein isolate suspension (WPI; LACPRODAN® 9224, Arla Ingredients, Viby, Denmark) with an initial pH of 7.0. Following the endopeptidases addition, the WPI was mixed and 200 μL were transferred to each well of a 96-well microtiter plate. The hydrolysis was conducted at 50° C. without pH control and terminated after 18 hr by addition of 20 μL of 2 M TCA. Prior to the determination of the DH (Nielsen, Petersen et al., 2001, infra), all samples were filtered 0.22 μm.

[6] = test system: peptide TPAAAR (peptide library XPAAAR); experiment: Hydrolysis of peptide with proline in position 2, LC-MS; conditions: within 12 hr; peptide library 1 mg/mL, aminopeptidase 1 ug/mL, 55° C.; FIG. 10
Procedure: The peptide library XPAAAR (1 mg/mL) (SEQ ID NO:133) was incubated with 1 ug/mL of the aminopeptidase in 3×20 mM CPB-Buffer (20 mM Citric acid, 20 mM Phosphate, 20 mM Boric acid) at 55° C. 50 μL aliquots were stopped with 50 ul 5% TFA at the indicated time points and subjected to LC-MS analysis.
Capillary LC-MS/MS analyses were performed using an Agilent 1100 LC system (Agilent Technologies) interfaced to a LTQ Orbitrap Classic hybrid mass spectrometer (Thermo Scientific, Bremen, Germany). Samples were loaded onto a 15 cm Phenomenex Jupiter 4μ Proteo 90A, C4 analytical column. Separation was performed at a flow rate of 16 μL/min using a 10 min gradient of 0-40% Solvent B H2O/CH3CN/HCOOH (50/950/0.65 v/v/v) into the IONMAX® ion source (Thermo Scientific, San Jose). […] The peptide masses were measured by the Orbitrap (MS scans were obtained with a resolution of 60 000 at m/z 400), and up to 2 of the most intense peptide m/z were selected and subjected to fragmentation using CID in the linear ion trap (LTQ). […]
Label free quantification: The RAW files were accessed with the program Skyline 2.6.0.7176 (MacLean, B., et al., supra) which uses the MS1 intensities to build chromatograms (Schilling, B., et al., supra). […] Peptide sequences of the substrate as well as cleavage products were typed into Skyline and intensities were calculated in each sample. […]

T1 sequence (A1CCU6 entry or part of it): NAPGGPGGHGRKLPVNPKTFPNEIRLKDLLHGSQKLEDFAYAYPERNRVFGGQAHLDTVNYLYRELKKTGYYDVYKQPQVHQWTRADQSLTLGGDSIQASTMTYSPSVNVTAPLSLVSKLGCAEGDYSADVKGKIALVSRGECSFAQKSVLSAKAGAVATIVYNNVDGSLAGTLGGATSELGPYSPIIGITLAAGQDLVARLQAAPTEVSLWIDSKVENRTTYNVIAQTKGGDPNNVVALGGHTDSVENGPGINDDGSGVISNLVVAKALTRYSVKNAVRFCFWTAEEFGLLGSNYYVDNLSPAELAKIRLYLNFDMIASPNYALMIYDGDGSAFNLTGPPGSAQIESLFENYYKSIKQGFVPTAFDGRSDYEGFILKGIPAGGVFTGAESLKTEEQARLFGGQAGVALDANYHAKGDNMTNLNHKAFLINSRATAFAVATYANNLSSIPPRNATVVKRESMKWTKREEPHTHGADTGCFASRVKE
T2 sequence (A1DJ89 entry or part of it): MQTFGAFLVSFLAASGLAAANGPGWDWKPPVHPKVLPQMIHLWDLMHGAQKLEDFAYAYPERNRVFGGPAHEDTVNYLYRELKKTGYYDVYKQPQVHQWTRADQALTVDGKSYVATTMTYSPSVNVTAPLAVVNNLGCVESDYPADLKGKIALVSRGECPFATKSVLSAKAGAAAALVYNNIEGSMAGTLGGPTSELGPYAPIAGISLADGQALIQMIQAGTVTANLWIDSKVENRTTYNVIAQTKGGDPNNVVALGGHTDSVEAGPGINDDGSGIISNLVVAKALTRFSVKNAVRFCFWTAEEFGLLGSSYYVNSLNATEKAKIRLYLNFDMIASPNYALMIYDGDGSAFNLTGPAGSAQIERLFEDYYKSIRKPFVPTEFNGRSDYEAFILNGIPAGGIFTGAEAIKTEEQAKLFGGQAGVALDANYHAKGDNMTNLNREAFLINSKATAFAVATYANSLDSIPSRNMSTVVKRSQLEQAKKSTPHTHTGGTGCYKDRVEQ

NC(=O)CC[C@H](N)C(=O)Nc1ccc([N+](=O)[O-])cc1 [Gln-pNA, H-Gln-Nitroanilid]
Vmax (Gln-pNA) [1]: 98.7 mU/min
Vmax (Gln-pNA) [2]: 75.9 mU/min
Vmax (Gln-pNA) [3]: 0 mU/min
Vmax (Gln-pNA) [4]: 0 mU/min

N[C@@H](CCC(=O)O)C(=O)Nc1ccc([N+](=O)[O-])cc1 [Glu-pNA, H-Glu-Nitroanilid]
Vmax (Glu-pNA) [1]: 20.1 mU/min
Vmax (Glu-pNA) [2]: 50.8 mU/min
Vmax (Glu-pNA) [3]: 0.02 mU/min
Vmax (Glu-pNA) [4]: 0 mU/min

B1: PepN 1: L. helveticus: PepN 1 from Lactobacillus helveticus ATCC 12046, expressed and purified as described by Stressler, Eisele et al. (2013) (protein, UniProt Q10730 1-844, looked up)
Aminopeptidase N: T3 sequence (Q10730 1-844)
Degree of hydrolysis ([5]; PepN dosage 2.5 nkat/mL in stock solution): 18%
Degree of hydrolysis ([5]; PepN dosage 5 nkat/mL in stock solution): 18%
Degree of hydrolysis ([5]; PepN dosage 10 nkat/mL in stock solution): 20%
Degree of hydrolysis ([5]; PepN dosage 25 nkat/mL in stock solution): 23%
Degree of hydrolysis ([5]; PepN dosage 50 nkat/mL in stock solution): 23%
Degree of hydrolysis ([5]; PepN dosage 75 nkat/mL in stock solution): 24%
Degree of hydrolysis ([5]; PepN dosage 100 nkat/mL in stock solution): 28%
Degree of hydrolysis ([5]; PepN dosage 200 nkat/mL in stock solution): 27%

B2: TRI063 (A. oryzae): leucine aminopeptidase 2 from Aspergillus oryzae RIB40 (NCBI Reference Sequence: XP_001819545.1) (protein, listed as Aspergillus oryzae)
chain: MRSLLWASLLSGVLAGRALVSPDEFPEDIQLEDLLEGSQQLEDFAYAYPERNRVFGGKAHDDTVNYLYEELKKTGYYDVYKQPQVHLWSNADQTLKVGDEEIEAKTMTYSPSVEVTADVAVVKNLGCSEADYPSDVEGKVALIKRGECPFGDKSVLAAKAKAAASIVYNNVAGSMAGTLGAAQSDKGPYSAIVGISLEDGQKLIKLAEAGSVSVDLWVDSKQENRTTYNVVAQTKGGDPNNVVALGGHTDSVEAGPGINDDGSGIISNLVIAKALTQYSVKNAVRFLFWTAEEFGLLGSNYYVSHLNATELNKIRLYLNFDMIASPNYALMIYDGDGSAFNQSGPAGSAQIEKLFEDYYDSIDLPHIPTQFDGRSDYEAFILNGIPSGGLFTGAEGIMSEENASRWGGQAGVAYDANYHAAGDNMTNLNHEAFLINSKATAFAVATYANDLSSIPKRNTTSSLHRRARTMRPFGKRAPKTHAHVSGSGCWHSQVEA
hydrolysis of TPAAAR [6]: no hydrolysis
